assay: yeast display, Sf9 membrane polyspecificity reagent, FACS + sequencing; frameworks hold sequencing errors
Method in brief: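 After 36–48 hours of galactose induction, yeast (Saccharomyces cerevisiae BJ5465) displaying a synthetic nanobody library were stained at 4 °C for 1 hour with 10% biotinylated, detergent-solubilized Sf9 membrane reagent. Streptavidin microbeads enriched the stained cells before FACS sorting into low and high (top ~1%) gates on anti-HA and streptavidin fluorescence. Each clone's polyreactivity label reflects its gate of origin.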

Sequence	polyreactivity (PSR sort gate)
QVQLVESGGGLVQAGGSLRLICAASGSIFPANVMGWYRQAPGKERELVAVISSSGGRTFYADSVKGRFTISRDNAKNTVYLQMNSLKPDDTAVYYCAATIYDYKRALKYYYWGLGTQVTVSS	high polyreactivity
QVQLVESGGGLVQAGGSLRLSCAASGIIIGLYGRGWYRQAPGKERELVAAISSSGGSTYYADSVKGRFTISRDNAKNTVYLQINSLKPEDTAVYYCARVVRSLWGGLYLYDYWGQGTQVTVSS	low polyreactivity
QVQLVESGGGLVQAGGSLRLSCAASGNTLDAYTMGWYRQAPGKERELVAAISRGGTRTYYADSVKGRFTISRDNAKNTVYLQMNSLKPEDTAVYYCNKQFPYSKYYIMGYWGQGTQVTVSS	high polyreactivity
QVQLVESGGGLVQAGGSLRLSCAASGRIFIANTMGWYRQAPGKERELVAAITQRGDSTYYADSVKGRFTISRDNAKNTVYLQMNSLKPVDTAVYYCAARSFRKYYIRYDYWGQGTQVTVSS	high polyreactivity
QVQLVESGGGLVQAGGSLRLSCAASGITFRYNAMGWYRQAPGKERELVAAITFSGGSTYYADSVKGRFTISRDNAKNTVDLQMNSLKPEDTAVYYCAKLGSTSSRGNYDYWGQGTQVTVSS	low polyreactivity
QVQLVESGGGLVQAGGSLRLSCAASGFAVSYYAMAWYRQAPGKEREFVASSDWSGGSTYYADSVKGRFTISRDNAKNTVYLQMNSLKPEYTAVYYCAAELVYFPGYDYWGQGTQVTVSS	low polyreactivity
QVQLVESGGGLLQAGVTLRLSCAPSGFTQDSYSMGWYRQAPGKERELVARIRWSGGSTYYADSVKGRFTISRDNAKNTVYLQMNSLKPEDKAVYYCAADRPYYFLPYSTYTNYDSWGQGTQVTVSS	low polyreactivity
QVQLVESGGGLVQAGGSLRLSCAASGLNFIRYAMGWYRPAPGKERELVAAISWPGGNTYYADSVKGRFTISRDNAKNTVYLQMISQKPEDTAVYYCAAVGTWQHRSYGYWGQGTQVTVSS	high polyreactivity
QVQLVESGGGLVQAGGSLRLSCAASGFTFGYYGMGSYRQAPGKERELVAAISWSGGSTYYADSVKGRFTISRDNAKNTVYLQMNSLKPEDTAVYYCAASAGYASNYWGQGTQVTVSS	low polyreactivity
QGQHVESGGGLVQAGGSLRLICAASGRIIVHYVMGWYRQAPRKERELVAAISRSGGRTYYADSVKGRFTISRDNAKNTVYLQMNSLKPEDTAVYYCATDASTDKYDYWGQGTQVTVSS	high polyreactivity
QVQLVESGGGLVQAGGSLRLSCAASGSTFYYYAMGWYRPAPGKEREMVAAINSGGRTNYADSVKGRFTISRDNAKNSVYLQMNSLKPEDTAVYYCAKRTYPYGTYRSVWGYDYWGQGTQVTVSS	low polyreactivity
QVQLVESGGGLVQAGGSLRLSCAASGRIFVRNAMGWYRQAPGKERELVASISSSSGSTYYADSVKGRFTISRDNAKNTVYIQMNSLKPEDTAVYYCNAGYHFVHWPHVKHKKFDYWGQGTQVTVSS	low polyreactivity
QVQLVESGGGLFQAGGSLRLSCAASGRTFVKYDMGWYRHAPGKERELVAAISRRGGSTYYADSVKGRFTISRDNAKNTVYLQMNSLKPEDTAVYYCNAVHPKDVDSYRDRDYWGQGTQVTVSS	high polyreactivity
QVQLVESGGGLVQAGGSLRLSCAASGRIFDLYTMGWYRQAPGKERELVAAIRWSDGSTYYADSVKGRFTISRDNAKNTVYLQMNSLKPEDTAVYYCATDTAILINFVLYDYWGQGTQVTVSL	low polyreactivity
QVQLVESGGGLVQAGGSLRLSCAASGITFRTNTMGWSRQAPGKERELVAAITWDGGSTYYADSVKGRFTISRDNAKNTVYLQMNSLKPEDTAVYYCAARLSYLYGLYPYYYWGQGTQVTVSS	high polyreactivity
QVQLVESGGGLVQAGGSLRLSCAASGNIVDYYGMGWYIQAPGKERELVAAINVSGDSTYYADSVKGRFTISRDNAKNTVYLQMNSLKPEDTAVYYCAADYGWGSGFEYDYWGQGTQVTVSS	low polyreactivity
QVHLVESGGGLVQAGGSLRLSCAASGLIFVFYAMGWYRQAPGKERELVAAISRSGTSTYADSVKGRFTISRDNAKNTVYLQMNSLKPEDTAVYYCNAYRYYSPDGYWGQGTHVTVSS	low polyreactivity

Source: the nanobody polyreactivity screen of Harvey et al. (2022)
